One block for each binder: values may come before it. Numbered stars: 1 amine (or outer) side, 2 acyl side, 3 side chain; on linkers, the order of the positions; unused ones are H or OH. Square brackets hold non-standard residues; d marks the D form. Side chains are listed from the residue outwards. * marks the point of attachment. γGlu = O=C(O)[C@H](CCC(=O)[*:2])N[*:1]; Palmitoyl = CCCCCCCCCCCCCCCC(=O)*; Aib = CC(C)(N)C(=O)O
How the values were obtained:
human GLP-1 receptor = human GLP-1 receptor (human, UniProt P43220 24-463); experiment: cell-based or functional assay
human GIP receptor = target: T1, human GIP receptor (human, UniProt P48546 22-466); experiment: cell-based or functional assay
T1 sequence (looked up): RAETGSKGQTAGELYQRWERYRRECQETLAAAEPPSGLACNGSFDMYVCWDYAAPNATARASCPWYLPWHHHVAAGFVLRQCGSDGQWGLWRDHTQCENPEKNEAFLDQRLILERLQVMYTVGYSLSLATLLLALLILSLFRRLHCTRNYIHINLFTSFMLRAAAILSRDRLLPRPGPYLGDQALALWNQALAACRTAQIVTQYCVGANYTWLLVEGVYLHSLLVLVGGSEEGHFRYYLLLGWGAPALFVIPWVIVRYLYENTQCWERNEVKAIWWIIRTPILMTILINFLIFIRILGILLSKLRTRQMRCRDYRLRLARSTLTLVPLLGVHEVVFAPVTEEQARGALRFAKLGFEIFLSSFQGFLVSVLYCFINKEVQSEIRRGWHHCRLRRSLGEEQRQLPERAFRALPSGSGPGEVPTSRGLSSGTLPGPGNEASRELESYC

EC50, cAMP induction in HEK293 cells expressing human GLP-1 R (human GLP-1 receptor): 0.11 nM | EC50, cAMP induction in HEK293 cells expressing human GIP R (human GIP receptor): 0.24 nM
B1: Compound 51 (peptide)
peptide: H-Y[Aib]EGTFTSDYSKYLDSK([γGlu-Palmitoyl])AAHDFVEWLLRA-NH2
SMILES: CCCCCCCCCCCCCCCC(=O)N[C@@H](CCC(=O)NCCCC[C@H](NC(=O)[C@H](CO)NC(=O)[C@H](CC(=O)O)NC(=O)[C@H](CC(C)C)NC(=O)[C@H](Cc1ccc(O)cc1)NC(=O)[C@H](CCCCN)NC(=O)[C@H](CO)NC(=O)[C@H](Cc1ccc(O)cc1)NC(=O)[C@H](CC(=O)O)NC(=O)[C@H](CO)NC(=O)[C@@H](NC(=O)[C@H](Cc1ccccc1)NC(=O)[C@@H](NC(=O)CNC(=O)[C@H](CCC(=O)O)NC(=O)C(C)(C)NC(=O)[C@@H](N)Cc1ccc(O)cc1)[C@@H](C)O)[C@@H](C)O)C(=O)N[C@@H](C)C(=O)N[C@@H](C)C(=O)N[C@@H](Cc1c[nH]cn1)C(=O)N[C@@H](CC(=O)O)C(=O)N[C@@H](Cc1ccccc1)C(=O)N[C@H](C(=O)N[C@@H](CCC(=O)O)C(=O)N[C@@H](Cc1c[nH]c2ccccc12)C(=O)N[C@@H](CC(C)C)C(=O)N[C@@H](CC(C)C)C(=O)N[C@@H](CCCNC(=N)N)C(=O)N[C@@H](C)C(N)=O)C(C)C)C(=O)O

EC50, cAMP induction in HEK293 cells expressing human GLP-1 R (human GLP-1 receptor): 0.09 nM | EC50, cAMP induction in HEK293 cells expressing human GIP R (human GIP receptor): 0.053 nM
B2: Compound 50 (peptide)
peptide: H-Y[Aib]EGTFTSDYSIYLDEK([γGlu-Palmitoyl])AAKDFIEWLESA-NH2
SMILES: CCCCCCCCCCCCCCCC(=O)N[C@@H](CCC(=O)NCCCC[C@H](NC(=O)[C@H](CCC(=O)O)NC(=O)[C@H](CC(=O)O)NC(=O)[C@H](CC(C)C)NC(=O)[C@H](Cc1ccc(O)cc1)NC(=O)[C@@H](NC(=O)[C@H](CO)NC(=O)[C@H](Cc1ccc(O)cc1)NC(=O)[C@H](CC(=O)O)NC(=O)[C@H](CO)NC(=O)[C@@H](NC(=O)[C@H](Cc1ccccc1)NC(=O)[C@@H](NC(=O)CNC(=O)[C@H](CCC(=O)O)NC(=O)C(C)(C)NC(=O)[C@@H](N)Cc1ccc(O)cc1)[C@@H](C)O)[C@@H](C)O)[C@@H](C)CC)C(=O)N[C@@H](C)C(=O)N[C@@H](C)C(=O)N[C@@H](CCCCN)C(=O)N[C@@H](CC(=O)O)C(=O)N[C@@H](Cc1ccccc1)C(=O)N[C@H](C(=O)N[C@@H](CCC(=O)O)C(=O)N[C@@H](Cc1c[nH]c2ccccc12)C(=O)N[C@@H](CC(C)C)C(=O)N[C@@H](CCC(=O)O)C(=O)N[C@@H](CO)C(=O)N[C@@H](C)C(N)=O)[C@@H](C)CC)C(=O)O

— patent US20150299281A1 (ZEALAND PHARMA A S, published 2015)
